Test results taken from the DeepSol protein solubility set.

Assay: soluble on expression in E. coli; label from the status in PepcDB or PDB records

Sequence | soluble on expression in E. coli
MGSDKIHHHHHHMPPLDLTHIRQHHTVAELIALGKARRQVTPFEKLGTFTPVKRNASDYLKHVREMLVPELLPLRRERMSASAFAFFRGSVELMDYDLDYQSSTEIPAVVCGDAHIGNFGFYASPERRLVFDLNDFDEAGVHPWEWDLRRLLVSVLLAARDSNFKPKKVEKLIQAASASYREALKRMFDQTTLDRFYRDNEVQAVLNFGGAPEDTADLIASLVKKAQKRNSEQVVRKFTVTNSRGERQFKENAPRSVHIDRQTYQGLKAGISEYLLNVRTDVALLLSQYEVTDIIRHSVGVGSFGSLCYLVLLTSTDGSHMVLQIKEALPTRKVGSQSRPALTAAMELTEGQRIVSSQRILQATSDAFLGYFQMENKSFYVRQFRDMKESIDIPTLDWGQFQAYANTCAMILAKAHAQSPTAAMIRGYVGNSAKFDEAMAKWATAYVEQVDNDYQDFLDV | not soluble
LRANKPVFKNAGATLHDIGDGIVNLEFHTKMNTLGGEVVDAINRSIGIAEKDFQGIVIGNDGANFSAGANLALVLMYAIEQEYDEIDFMIRAFQNTMMRARYSSIPVVVAPHNLTLGGGCEMTLHADHVQAFAETYIGLVEFGVGLIPAGGGTKEFTLRVSDSFEDGDIQVNNLKNMYMHIATAKVATSAEEARSMGILRKSDGITLNRSRLIADAKAAAISLAEAG | not soluble
MARFTDKVAIITGSSNGIGRATAVLLATDGAKVTITGRDAARLEETRQAILKAGISATNVNSVVADVTTAEGQDLLISSTLDKFGKINILINNAGANIPDSQGQTRTKCSIENLTKMFQLNLQSVVEMVQKVRPHLAKTRGEIVNISSIGAGPAAQPASPYYSSAKAALDQYSRCAAIDLISEGIRINVVQPGFVSTGFSTAARGLSADESVKFYDLMGSLPHCIPAGYCGQPDHLASVIAFLVDRKVSEYIVGQTIIADGGSSLVIGCHAPRQ | not soluble
MQTPHILIVEDELVTRNTLKSIFEAEGYDVFEATDGAEMHQILSEYDINLVIMDINLPGKNGLLLARELREQANVALMFLTGRDNEVDKILGLEIGADDYITKPFNPRELTIRARNLLSRTMQ | soluble
MVSTTQSRSLKAMGEEIWKNKTEKINTELFTLTYGSIVAQLCQDYERDFNKVNDHLYSMGYNIGCRLIEDFLARTALPRCENLVKTSEVLSKCAFKIFLNITPNITNWSHNKDTFSLILDENPLADFVELPMDAMKSLWYSNILCGVLKGSLEMVQLDCDVWFVSDILRGDSQTEIKVKLNRILKDEIPIGED | soluble
MESNTWNTIHDNKKENAALNDVQVEVNYAIKLDDQWTVRPGMLTHFSSNGTRYGPYVKLSWDATKDLNFGIRYRYDWKAYRQQDLSGDMSRDNVHRWDGYVTYHINSDFTFAWQTTLYSKQNDYRYANHKKWATENAFVLQYHMTPDITPYIEYDYLDRQGVYNGRDNLSENSYRIGVSFKL | not soluble
RLHRLPRDCQELFQVGERQSGLFEIQPQGSPPFLVNCKMTSDGGWTVIQRRHDGSVDFNRPWEAYKAGFGDPHGEFWLGLEKVHSITGDRNSRLAVQLRDWDGNAELLQFSVHLGGEDTAYSLQLTAPVAGQLGATTVPPSGLSVPFSTWDQDHDLRRDKNCAKSLSGGWWFGTCSHSNLNGQYFRSIPQQRQKLKKGIFWKTWRGRYYPLQATTMLIQPMAAEAAS | soluble
PKKEVVRIHASSGTTGKPTVVGYTKKDLKTWAELISRVVTAAGVTDEDTAQVAFGYGLFTGGFGLHYGLENVGASVIPMSSGNTEKQIMLMKDFETTVLICTPSYALYISEVAQKMGIDPKKDLKLKIGLFGGEACSESARTEIESKWGILATQNYGMSELMGPGVSGECEYQCGMHIS | not soluble
MGSSHHHHHHSSGLVPRGSHMQAATVVINRRALRHNLQRLRELAPASKMVAVVKANAYGHGLLETARTLPDADAFGVARLEEALRLRAGGITKPVLLLEGFFDARDLPTISAQHFHTAVHNEEQLAALEEASLDEPVTVWMKLDTGMHRLGVRPEQAEAFYHRLTQCKNVRQPVNIVSHFARADEPKCGATEKQLAIFNTFCEGKPGQRSIAASGGILLWPQSHFDWVRPGIILYGVSPLKDRSTGADFGCQPVMSLTSSLIAVREHKAGEPVGYGGTWVSERDTRLGVVAMGYGDGYPRAAPSGTPVLVNGREVPIVGRVAMDMICVDLGPQAQDKAGDPVILWGEGLPVERIAEMTKVSAYELITRLTSRVAMKYVD | soluble
ASVLTVKDIARKKPAAVFKKSEHDGPGSAMQILMDHDRDYGIVVDKSSRYSGIVSLDSLRLAHKENRSLASAQLEDDVTLQPDQSVNDILGVVASVPYAVPVVDEQGTYFGVVTKSRLLQTLDKD | soluble
MAHHHHHHMEWVPCTEQTGSVGCREGHCATSLQEKSTGEEWVLVVGGYCEGERDGAVMAARADGLPMLRWVRLDKPNMTWFECDGASLTHVTGDTAYFFGGLNEHMNHSNQLLCLSLHQGQQGDLSLDVVKVETTGDVPLPRARHSAGSAGRYFVVFGGETEDAEQNNDGYILDTDTMVWTRIPTGHQVPNPRLLAGPLVFYSPHGCILYGGAHFVNGDIRSMSDVWNLHIPLGGTWFNVSYGDGAPACRFPRSNGHAGGVLGRVGGETVVVFVGGKDAAEGCDRVKQVQPPKSAEDKFHLRLVDPVLAGGEGPHWRYTPAAVDTRRGVLLLGGQCRHPQEVAAFLLKQTGVTLQR | not soluble
MIVHELTDIGHLFTEQLQEGYYVIRETYQNVLVEPEDGDTVRQVDAGTEEVVTIVFDPGDEYSLICLDTYTFADGIPSLAELKETIAAEYDVFVNDRWAAPSL | not soluble
MKSLGADLDKALGRLSGGLYIITAKKGDVSSAMLASWVNQASFKPLGFSIAVAKDRAIESLMQVGDRFVLNVLEEGNYQPLMRHFLKRFAPGADRFEGVKTQPAENGAPILGDALAYMECEVVSRMDCGDHWAVYSTVYAGRVSKSEALTAVHHRKVGNHYLEHHHHHH | not soluble
GHMTKLFSKVKESIEGIKMPSTLTINGKAPIVAYAELIAARIVNALAPNSIAIKLVDDKKAPAAKLDDATEDVFNKITSKFAAIFDNGDKEQVAKWVNLAQKELVIKNFAKLSQSLETLDSQLNLRTFILGGLKYSAADVACWGALRSNGMCGSIIKNKVDVNVSRWYTLLEMDPIFGEAHDFLSKSLLELKKSANVGKKKETHKANFE | soluble
MSNPLAVDVPTFTKLHNVAQWLSQQPPSPRLFDQKENGFSQNFQPFLKTVNSCTIPDDLHEEMMRLKRKENAFKTALCKTFQLTRACSYGEQCKFAHSVEELQLKQKNRGVNHPKYKTVLCDNFSRTGHCKYGTKCQFIHRAVEPTPAQNPLMPQFSSWFAPSSGLSREFLDNFGASASSSSTDFS | not soluble
MSGSFELSVQDLNDLLSDGSGCYSLPSQPCNEVTPRIYVGNASVAQDIPKLQKLGITHVLNAAEGRSFMHVNTNANFYKDSGITYLGIKANDTQEFNLSAYFERAADFIDQALAQKNGRVLVHCREGYSRSPTLVIAYLMMRQKMDVKSALSIVRQNREIGPNDGFLAQLCQLNDRLAKEGKLKP | soluble
MNMAHTTTSMEIFGSPEQVWQLIGGFNSLPDWLPYIPSSKLTEGGRVRHLANPDGDTIIERLEVFNDKERYYTYSIMNAPFPVTNYLSTIQVKEGTESNTSLVEWSGTFTPVEVSDEEAINLFHGIYSDGLKALQQAFLDLEHHHHHH | soluble
MASKHAAKTVDPKDLSPAWKVLQMKLNEEKAEKEKAAKAEKEANPEGSDDGFTKVQTKKQKQKMNRKRRAQEALAAASEVKRVHHDIPVVIEDSERGELTKVIAIDCEYVGAGMGGTTDILARISIVNELGKIVYDKFVKPTEKVTDFRTAVSGIRPENMIKAIPFDRAQTEVSKLIDGRIVIGHAVHNDFRVLKLNHIRKLTRDTAKCTILKNMANHHGTPSLKKLAKEVLGIEIQRGEHDSITDARVALRLYEAVKKQWEAEIKRYR | not soluble
MKLASLKSTRSRDGELCIVNRLLTAAIRVPHIASTLQYALDHWDVVEPKLQLVYQQLNDNQIEDAFAFAPELCASPLPRAYQWADGSAYVNHVELVRKARGAEMPADFWTNPLMYQGGSDAFLGPRDPILVSSEAYGIDFESEVAVITDDVPMGIDHTNAAHHIKLLMLVNDVSLRNLIPEELAKGFGFFQSKPASSFSPVAITPDELGSYWDGQRVNLPLISHLNEQLFGQPNAGVDMTFSFPELIQHAAKTRFLTAGTIIGSGTVSNLDRSKGSSCIAEKRMLEMIEFGQAKTPFMRFGDRIRIEMLDGQGYSLFGSIDQIVTKYDKDSL | not soluble
